Numbering of substitutions follows the chain as printed. In names and notes the source's numbering stands.
B1: His-tagged wild type RsbP (natural protein, Bacillus subtilis, UniProt O07014 1-403, looked up)
chain: MDKQLNDAPCGFLALSEEGSIIAANRTLIKILDYEPEQVIGQHMNMMLTIPAQLFCQLYFFPLLKLEHHIEEIYISLKARDGEEIPVLINAIARHDSGASVFDCVLIPMRKRNEYENELLIARNEAQEALLAKQKANAELEIALETLKAKQEELLEINKQNQQFKLNTKRELELARKIQKNSLTEPIVNDQVQIDSYYNASSELSGDLYGYYQIDEHRYGIIILDVMGHGISSALITMSLHPLFQRQITQGLSPVKVMKELDRHLHSLFQNDEEARHYCTAIYLEIDIARQRIDYVNAGHPPALWQDDSGTQHLLHATSPPIGMFEDLEFQSSSLSYTEDGRLLLYTDGVMDPTASCYLFDLLKDHPDSPIADLKEKILTSLQHQKEAHHKSDDECFILVDVK
notes: RsbP serine phosphatase, Bacillus subtilis; called full-length in the results and discussion; predicted monomer mass of the His-tagged protein 48,325; also called WT
B2: His-tagged RsbP-F55A (natural protein, Bacillus subtilis, UniProt O07014 1-403, looked up)
chain: B1 chain with F55A
notes: RsbP serine phosphatase, Bacillus subtilis, with F55A

Molecular target: the molecule itself
Assay: SEC; Superose 12 10/300 GL, 4°C, 20 mM Tris-HCl pH 6.9, 100 mM NaCl, 0.1 mM EDTA; protein applied at 2.5 mg/ml; calibrated with standard proteins

Protein | stoichiometry N | binding result
B1 | 4 | 
B2 |  | binds

From PMC3183031, “An α/β Hydrolase and Associated Per-ARNT-Sim Domain Comprise a Bipartite Sensing Module Coupled with Diverse Output Domains” (PLoS ONE, 2011)
